From patent US20160304625A1 come the findings set out here.

This assay addresses mIgM proximal domain peptide conjugated to keyhole limpet hemocyanin (human). Nature of the assay: ELISA direct binding, mIgM-PD-KLH. A general note: An ELISA detects its analyte on a solid surface through an enzyme-linked reagent.

As for Control mAb (antibody), the ELISA reading amounted to 0.1.
